Here are results for seven molecules from US7842469B2, “Bioluminescence resonance energy transfer (BRET) systems and methods of use thereof” (Stanford University, priority 2005, dated 2010).

To fix the notation:
B1: C124A/M185V: double mutant (C124A/M185V) Renilla Luciferase protein (SEQ ID NO: 2) (protein)
chain: MASKVYDPEQRKRMITGPQWWARCKQMNVLDSFINYYDSEKHAENAVIFLHGNAASSYLWRHVVPHIEPVARCIIPDLIGMGKSGKSGNGSYRLLDHYKYLTAWFELLNLPKKIIFVGHDWGAALAFHYSYEHQDKIKAIVHAESVVDVIESWDEWPDIEEDIALIKSEEGEKMVLENNFFVETVLPSKIMRKLEPEEFAAYLEPFKEKGEVRRPTLSWPREIPLVKGGKPDVVQIVRNYNAYLRASDDLPKMFIESDPGFFSNAIVEGAKKFPNTEFVKVKGLHFSQEDAPDEMGKYIKSFVERVLKNEQ
modifications: Chemically synthesized Renilla Luciferase
B2: C124A/A143M: RLuc mutant C124A/A143M (protein)
chain: B1 chain with A143M, V185M
B3: C124A/S287L: RLuc mutant C124A/S287L (protein)
chain: B1 chain with V185M, S287L
B4: C124A/M253L: RLuc mutant C124A/M253L (protein)
chain: B1 chain with V185M, M253L

Positions count from the first letter of the chain named. In names and notes the source's numbering stands.

Tested on in one data set: not listed separately
Put plainly: Bioluminescence emission spectra. Type of data set: physicochemical. The settings on record: emission spectrum with native coelenterazine. An outline of the steps:
(§1)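 Luciferase diluted into mouse or rat serum at 37° C; aliquots withdrawn over time for activity, half-life from mono-exponential decay fit. Emission spectra recorded at ambient temperature with a grating spectrometer and cooled CCD detector.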
Consider B1, for which the “Wavelength (nm) mean” value is recorded as 500 nm and the “Wavelength (nm) peak” value is given as 485 nm.

For the molecule B2, the “Wavelength (nm) mean” value was 497 nm and the “Wavelength (nm) peak” value stood at 480 nm.

For B3, the “Wavelength (nm) mean” value worked out at 496 nm and the “Wavelength (nm) peak” value was 478 nm.

In the case of B4, the “Wavelength (nm) mean” value is 488 nm and the “Wavelength (nm) peak” value was found to be 471 nm.

Another data set deals with CHO cells. Put plainly: Mammalian expression, transient transfection, light output in CHO cells. It counts as cell-based, Chinese Hamster. The following applies: pcDNA 3.1 CMV plasmid, 24 hours post transfection, coelenterazine. The text has this: (§2) Mammalian Expression: In order to construct mammalian expression vectors, bacterial expression vectors containing the desired mutations were used as templates for PCR, with primers designed such that the N-terminal pelB sequence would be replaced by a methionine codon and a C-terminal stop codon would replace the Myc epitope and 6×His tag. The primers also contained appropriate NheI and HindIII restriction sites to allow insertion of the product into the pcDNA 3.1 plasmid (Invitrogen). The resultant plasmids were transiently transfected using SuperFect (Qiagen) into 293T or Chinese Hamster Ovarian (CHO, ATCC# CCL-61) cells growing in 24 well plates following the manufacturer's protocol. Twenty-four hours post transfection, 0.5 μg/well of coelenterazine was added, and the plates were imaged in an IVIS 50 imaging system (Xenogen, Alameda, Calif.).
As for B1, the “Light output after transient transfection, CHO” value is 172.4 ± 8.4 photons × 10^6/s/cm^2/steradian.

Tested on in the next data set: not listed separately
Briefly: Serum stability in mouse serum at 37° C. Type of data set: in vitro ADME. The settings on record: mouse serum, 37° C., mono-exponential fit. An outline of the steps:
as §1
For B1, the “Serum τ1/2 (h) mouse” value was 5.7 h.

Consider B2, for which the “Serum τ1/2 (h) mouse” value was found to be 30 h.

B3: the “Serum τ1/2 (h) mouse” value was found to be 28 h.

Regarding B4, the “Serum τ1/2 (h) mouse” value is on record as 15 h.

Tested on in the next data set: not listed separately
Briefly: Luciferase activity of purified RLuc mutants (light output integrated over 10 s, luminometer). It counts as biochemical. The settings on record: benzyl-coelenterazine; relative to native enzyme. An outline of the steps:
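Purified RLuc mutant sample, diluted in EB with 1% HSA, added to room-temperature 100 mM sodium phosphate (pH 7), then 1 μl of 0.5 μg/μl coelenterazine or analog mixed in manually. Light read for 10 s starting ~4 s after luciferin addition. Luminometer calibrated to photons/s against luminol standard in DMSO.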
Turning to B1, the “Activity (relative to RLuc) bc” value was found to be 3.0.

Regarding B2, the “Activity (relative to RLuc) bc” value is on record as 1.3.

For the molecule B3, the “Activity (relative to RLuc) bc” value is on record as 2.8.

On to B4, for which the “Activity (relative to RLuc) bc” value came out at 1.4.

Staying with this data set, now noted: bisdeoxycoelenterazine (Coelenterazine 400a).
As to B1, the “light output compared to M185V alone” value is recorded as 2 fold.

Still in this data set, the particulars now being: bisdeoxycoelenterazine; relative to native enzyme.
Turning to B1, the “Activity (relative to RLuc) bdc” value is recorded as 44.

As for B2, the “Activity (relative to RLuc) bdc” value turned out to be 1.6.

As to B3, the “Activity (relative to RLuc) bdc” value was found to be 9.5.

Regarding B4, the “Activity (relative to RLuc) bdc” value stood at 1.7.

Staying with this data set, now noted: coelenterazine-cp; relative to native enzyme.
As to B1, the “Activity (relative to RLuc) cp” value was 15.

Regarding B2, the “Activity (relative to RLuc) cp” value was 0.95.

As for B3, the “Activity (relative to RLuc) cp” value was determined as 3.4.

As for B4, the “Activity (relative to RLuc) cp” value is on record as 1.6.

Staying with this data set, now noted: coelenterazine-n; relative to native enzyme.
With B1, the “Activity (relative to RLuc) n” value worked out at 7.8.

As to B2, the “Activity (relative to RLuc) n” value was determined as 1.5.

B3: the “Activity (relative to RLuc) n” value was found to be 5.0.

B4: the “Activity (relative to RLuc) n” value came out at 1.6.

Staying with this data set, now noted: in vitro.
With B1, the “increase in activity compared to the C124A mutant” value is “approximately 3 fold”.

Still in this data set, the particulars now being: native coelenterazine; relative to native enzyme.
As for B1, the “Activity (relative to RLuc) native” value is given as 3.4.

Consider B2, for which the “Activity (relative to RLuc) native” value was found to be 1.7.

For the molecule B3, the “Activity (relative to RLuc) native” value is listed as 3.9.

Regarding B4, the “Activity (relative to RLuc) native” value amounted to 1.9.

In another data set the target is MDR1 P-glycoprotein (Pgp) (Homo sapiens, UniProt P08183).
Chain of MDR1 P-glycoprotein (Pgp) (P08183 whole entry): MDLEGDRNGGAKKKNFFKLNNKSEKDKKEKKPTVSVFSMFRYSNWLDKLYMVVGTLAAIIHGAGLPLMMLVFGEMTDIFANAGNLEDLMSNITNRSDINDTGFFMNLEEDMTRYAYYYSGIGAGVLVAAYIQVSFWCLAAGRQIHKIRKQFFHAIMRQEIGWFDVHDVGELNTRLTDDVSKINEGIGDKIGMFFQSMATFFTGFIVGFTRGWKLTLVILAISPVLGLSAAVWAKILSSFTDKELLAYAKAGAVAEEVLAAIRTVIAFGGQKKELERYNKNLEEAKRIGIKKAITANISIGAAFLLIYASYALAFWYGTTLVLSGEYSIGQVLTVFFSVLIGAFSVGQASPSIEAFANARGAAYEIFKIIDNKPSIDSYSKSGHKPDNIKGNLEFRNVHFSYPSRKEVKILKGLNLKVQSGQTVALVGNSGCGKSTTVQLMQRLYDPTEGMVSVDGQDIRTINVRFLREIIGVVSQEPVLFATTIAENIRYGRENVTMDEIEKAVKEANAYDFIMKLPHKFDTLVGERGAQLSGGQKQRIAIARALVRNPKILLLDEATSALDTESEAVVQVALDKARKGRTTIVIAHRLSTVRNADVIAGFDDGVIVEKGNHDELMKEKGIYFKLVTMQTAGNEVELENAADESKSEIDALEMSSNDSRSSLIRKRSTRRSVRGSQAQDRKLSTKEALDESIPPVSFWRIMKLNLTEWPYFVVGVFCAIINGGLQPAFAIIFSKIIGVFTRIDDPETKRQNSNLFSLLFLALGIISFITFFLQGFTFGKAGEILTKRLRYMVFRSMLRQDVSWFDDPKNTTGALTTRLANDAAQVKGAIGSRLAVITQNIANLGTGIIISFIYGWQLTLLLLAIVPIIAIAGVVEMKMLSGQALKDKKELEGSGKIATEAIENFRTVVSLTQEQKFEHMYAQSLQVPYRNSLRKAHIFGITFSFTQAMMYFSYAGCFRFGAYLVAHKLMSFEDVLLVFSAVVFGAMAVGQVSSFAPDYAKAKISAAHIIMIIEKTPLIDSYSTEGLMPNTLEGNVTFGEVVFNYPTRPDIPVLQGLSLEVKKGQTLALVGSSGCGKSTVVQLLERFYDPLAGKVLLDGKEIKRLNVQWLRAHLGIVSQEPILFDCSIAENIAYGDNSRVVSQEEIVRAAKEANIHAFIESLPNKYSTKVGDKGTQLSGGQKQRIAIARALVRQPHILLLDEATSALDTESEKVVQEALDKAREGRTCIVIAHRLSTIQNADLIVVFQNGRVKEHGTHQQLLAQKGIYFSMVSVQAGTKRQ
Test: not given
The following applies: cited from earlier work.
Turning to Coelenterazine-n, the “substrate for MDR1 P-glycoprotein (Pgp)” value is “not substrates for Pgp”.

Still in this data set, the particulars now being: mammalian cells; cited from earlier work.
On to `Oc1ccc(Cc2nc3c(Cc4ccccc4)nc(-c4ccc(O)cc4)cn3c2O)cc1` [coelenterazine, Coelenterazine], for which the “substrate for MDR1 P-glycoprotein (Pgp)” value is “is a substrate for MDR1 P-glycoprotein”.

For `Oc1ccc(Cc2nc3c(CC4CCCC4)nc(-c4ccc(O)cc4)cn3c2O)cc1` [coelenterazine-cp], the “substrate for MDR1 P-glycoprotein (Pgp)” value is recorded as “not substrates for Pgp”.

Tested on in another data set: not listed separately
Briefly: Serum stability in rat serum at 37° C. It counts as in vitro ADME. The settings on record: mono-exponential fit. An outline of the steps:
as §1
As for B1, the “Serum τ1/2 (h) rat” value is given as 3.7 h.

With B2, the “Serum τ1/2 (h) rat” value is on record as 29 h.

With B3, the “Serum τ1/2 (h) rat” value came to 20 h.

For B4, the “Serum τ1/2 (h) rat” value was 10 h.

Tested on in the next data set: not listed separately
Briefly: Quantum yield measurements. It counts as biochemical. The settings on record: benzyl-coelenterazine. Here is the method: For quantum yield measurements, separate 1 μl drops of protein (about 2 pm) and substrate (0.2 pm) were placed in a tube, 100 μl of 100 mM sodium phosphate buffer (pH 7) was injected by the luminometer to mix, and the total light output was integrated (generally 5-10 min). For coelenterazine-n, the protein amount was increased 10 fold and the acquisition time lengthened to insure the reaction approached completion.
Regarding B1, the “Quantum Yield (%) bc” value turned out to be 6.3 ± 0.1%.

Regarding B2, the “Quantum Yield (%) bc” value is reported as 3.5 ± 0.1%.

For the molecule B3, the “Quantum Yield (%) bc” value worked out at 5.0 ± 0.1%.

Turning to B4, the “Quantum Yield (%) bc” value is 3.5 ± 0.1%.

The data set is the same for the next values; noted with them: bisdeoxycoelenterazine.
As to B1, the “Quantum Yield (%) bdc” value was “(174.4 ± 6.7) × 10^−3%”.

As to B2, the “Quantum Yield (%) bdc” value is “(6.3 ± 0.7) × 10^−3%”.

With B3, the “Quantum Yield (%) bdc” value is recorded as “(20.9 ± 0.6) × 10^−3%”.

For the molecule B4, the “Quantum Yield (%) bdc” value is listed as “(7.6 ± 0.3) × 10^−3%”.

Still in this data set, the particulars now being: coelenterazine-cp.
In the case of B1, the “Quantum Yield (%) cp” value turned out to be 10.1 ± 0.2%.

B2: the “Quantum Yield (%) cp” value came out at 4.8 ± 0.1%.

With B3, the “Quantum Yield (%) cp” value came to 7.2 ± 0.3%.

For the molecule B4, the “Quantum Yield (%) cp” value was determined as 5.1 ± 0.2%.

The same data set, now with this note: coelenterazine-n.
B1: the “Quantum Yield (%) n” value is on record as 9.4 ± 0.4%.

As for B2, the “Quantum Yield (%) n” value was found to be 5.8 ± 0.2%.

Take B3: the “Quantum Yield (%) n” value is listed as 7.7 ± 0.2%.

For B4, the “Quantum Yield (%) n” value was 5.8 ± 0.1%.

Staying with this data set, now noted: native coelenterazine.
Regarding B1, the “Quantum Yield (%) native” value was 6.9 ± 0.3%.

Consider B2, for which the “Quantum Yield (%) native” value is 5.2 ± 0.3%.

In the case of B3, the “Quantum Yield (%) native” value amounted to 6.1 ± 0.2%.

Turning to B4, the “Quantum Yield (%) native” value came out at 5.5 ± 0.1%.

A further data set concerns 293T cells. Briefly: Mammalian expression, transient transfection, light output in 293T cells. Type of data set: cell-based, human. The settings on record: mammalian cells (293T or CHO).
Description: as §2
On to B1, for which the “increase in light relative to C124A after transient transfection into mammalian cells” value is “approximately 3 fold”.

Staying with this data set, now noted: pcDNA 3.1 CMV plasmid, 24 hours post transfection, coelenterazine.
With B1, the “Light output after transient transfection, 293T” value is on record as 174.1 ± 25.7 photons × 10^6/s/cm^2/steradian.
